Paper PMC3223566, “The Initiation Factor TFE and the Elongation Factor Spt4/5 Compete for the RNAP Clamp during Transcription Initiation and Elongation” (Molecular Cell, 2011)

Columns and labels:
[1] = target: T1, M. jannaschii RNA polymerase, wild type, reconstituted from 12 recombinant subunits (M. jannaschii, UniProt Q58443 1-78; Q57840 1-187); assay: fluorescence polarisation; fluorescence anisotropy; RNAP added to labeled TFE^44*Cy3B (50 nM); apparent dissociation constant by direct fitting of the titration curves; settings: both partners purified
T1 construct: RNA polymerase subunit Rpo1′, M. jannaschii; holds the clamp coiled-coil motif; RNA polymerase subunit Rpo2″, M. jannaschii; RNA polymerase subunit Rpo4 (stalk), M. jannaschii; RNA polymerase subunit Rpo5, M. jannaschii; RNA polymerase subunit Rpo7 (stalk), M. jannaschii; In PIC and TEC experiments the same RNAP stood with DNA, TBP and TFB, or with a DNA/RNA scaffold (see the assay's format); …

[2] = target: T2, RNAPΔRpo4/7, ten-subunit RNAP subassembly lacking Rpo4/7 (M. jannaschii, UniProt Q58443 1-78); assay: as above; settings: both partners purified
T2 construct: RNA polymerase subunit Rpo1′, M. jannaschii; holds the clamp coiled-coil motif; RNA polymerase subunit Rpo2″, M. jannaschii; RNA polymerase subunit Rpo5, M. jannaschii; As m6 without the chains Rpo4 and Rpo7; source: recombinant subunits, reconstituted in vitro without Rpo4/7; copies: + + + + + + + + +

Kd [1]: 200 ± 10 nM | Kd [2]: 1700 ± 150 nM
B1: TFE labeled with Cy3B at residue 44 (WH domain) (natural protein)
chain: MLNDPLVQEVLFNIFEGDEKGFEVIDVLLEKGETTEEEIAKELFVKLNVVRKLLYKLYDARLVDYKRWKDEDTNWYSYTWLPTLEKLPYVVKKKINELIKDLEKKLEFEKNNMFFFCPNCNVRFTFEEAMDYGFSCPGCGNMLQEFDNSELIKDLEEQIKFLKEELKNNPFLK
modifications: p-azido phenylalanine (APA) at position 44, derivatized with Cy3B
